What follows are binders tested against T1, recombinant human EphA5 (rhEphA5) antigen (human, UniProt P54756 25-573) (assay: SPR single-cycle kinetics (Biacore T200), IgG from HEK supernatant captured on anti-human IgG CM5 chip, rhEphA5 as analyte, 1:1 fit).
T1 construct: also called human EphA5 (R and D systems, Cat. No. 3036-A5); recombinant EphA5
Set-up: Relative KD: reference not given here
Experimental: Kinetic analysis was carried out on a Biacore T200. Each antibody was captured on a CM5 chip coupled with an anti-human IgG using standard amine chemistry before increasing concentrations of antigen were injected and a single off-rate was determined.
Kinetic experiments were performed at 25° C. on a Biacore T200 running Biacore T200 Control software V2.0.1 and Evaluation software V3.0 (Cytiva, Uppsala, Sweden).
HBS-P+ (Cytiva, Uppsala, Sweden), supplemented with 1% BSA (Sigma, Dorset, UK) was used as running buffer as well as for ligand and analyte dilutions. Supernatants containing IgG were diluted in running buffer to 1 μg/mL. At the start of each cycle, antibodies were loaded onto Fc2, Fc3 and Fc4 of an anti-human IgG CM5 sensor chip (Cytiva, Little Chalfont, UK). Ig were captured at a flow rate of […] to give an immobilization level (RL) of ˜60 RU. The surface was then allowed to stabilize.

T1 sequence (P54756 25-573 limits assumed): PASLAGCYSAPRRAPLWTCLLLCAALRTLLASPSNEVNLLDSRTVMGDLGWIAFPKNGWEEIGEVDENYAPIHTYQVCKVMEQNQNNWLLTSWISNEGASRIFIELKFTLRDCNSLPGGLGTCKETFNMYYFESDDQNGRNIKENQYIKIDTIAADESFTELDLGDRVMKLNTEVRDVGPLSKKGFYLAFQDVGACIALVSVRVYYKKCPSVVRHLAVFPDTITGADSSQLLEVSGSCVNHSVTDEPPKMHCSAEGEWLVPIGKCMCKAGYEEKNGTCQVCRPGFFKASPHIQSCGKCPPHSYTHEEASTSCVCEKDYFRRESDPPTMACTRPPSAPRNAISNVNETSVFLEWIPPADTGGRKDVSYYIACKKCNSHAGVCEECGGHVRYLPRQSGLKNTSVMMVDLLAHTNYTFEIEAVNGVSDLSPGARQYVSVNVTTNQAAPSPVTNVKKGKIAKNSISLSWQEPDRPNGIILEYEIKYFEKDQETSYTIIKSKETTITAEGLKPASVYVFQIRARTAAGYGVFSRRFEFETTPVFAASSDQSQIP

Row | Binder | Kd | Relative KD | koff
1 | VH3/VK2 humanized 11C12 antibody (antibody, human IgG1, kappa, Human IgG1/kappa; tested as HEK293 EBNA supernatant; also called H3K2) heavy: not shown light: DIVMTQSPDSLAVSLGERATINCKASQSVDYDGDSYMNWYQQKPGKAPKLLIYGASNLESGIPDRFSGSGSGTDFTLTISRLEPEDAASYYCQQSNEDPFTFGQGTKLEIKRTVAAPSVFIFPPSDEQLKSGTASVVCLLNNFYPREAKVQWKVDNALQSGNSQESVTEQDSKDSTYSLSSTLTLSKADYEKHKVYACEVTHQGLSSPVTKSFNRGEC | 0.968 nM | 0.73 | 0.0013 s⁻¹
2 | VH1/VK4 humanized 11C12 antibody (antibody, human IgG1, kappa, Human IgG1/kappa; tested as HEK293 EBNA supernatant; also called H1K4) heavy: not shown light: DIVMTQSPDSLAVSLGERATINCKSSQSVDYDGDSYMNWYQQKPGKAPKLLIYGASNLESGIPDRFSGSGSGTDFTLTISRLEPEDAASYYCQQSNEDPFTFGQGTKLEIKRTVAAPSVFIFPPSDEQLKSGTASVVCLLNNFYPREAKVQWKVDNALQSGNSQESVTEQDSKDSTYSLSSTLTLSKADYEKHKVYACEVTHQGLSSPVTKSFNRGEC | 1.1 nM | 0.83 | 0.00137 s⁻¹
3 | VH2/VK3 humanized 11C12 antibody (antibody, human IgG1, kappa, Human IgG1/kappa; tested as HEK293 EBNA supernatant; also called H2K3) heavy: not shown light: DIVMTQSPDSLAVSLGERATINCKASQSVDYDGDSYMNWYQQKPGKAPKLLIYGASNLESGIPDRFSGSGSGTDFTLTISRLEPEDAAVYYCQQSNEDPFTFGQGTKLEIKRTVAAPSVFIFPPSDEQLKSGTASVVCLLNNFYPREAKVQWKVDNALQSGNSQESVTEQDSKDSTYSLSSTLTLSKADYEKHKVYACEVTHQGLSSPVTKSFNRGEC | 0.985 nM | 0.74 | 0.00132 s⁻¹
4 | VH3/VK3 humanized 11C12 antibody (antibody, human IgG1, kappa, Human IgG1/kappa; tested as HEK293 EBNA supernatant; also called H3K3) heavy: not shown light: DIVMTQSPDSLAVSLGERATINCKASQSVDYDGDSYMNWYQQKPGKAPKLLIYGASNLESGIPDRFSGSGSGTDFTLTISRLEPEDAAVYYCQQSNEDPFTFGQGTKLEIKRTVAAPSVFIFPPSDEQLKSGTASVVCLLNNFYPREAKVQWKVDNALQSGNSQESVTEQDSKDSTYSLSSTLTLSKADYEKHKVYACEVTHQGLSSPVTKSFNRGEC | 1.01 nM | 0.76 | 0.00133 s⁻¹
5 | VH2/VK5 humanized 11C12 antibody (antibody, human IgG1, kappa, Human IgG1/kappa; tested as HEK293 EBNA supernatant; also called H2K5) heavy: not shown light: DIVMTQSPDSLAVSLGERATINCKSSQSVDYDGDSYMNWYQQKPGKAPKLLIYGASNLESGIPDRFSGSGSGTDFTLTISRLEPEDAAVYYCQQSNEDPFTFGQGTKLEIKRTVAAPSVFIFPPSDEQLKSGTASVVCLLNNFYPREAKVQWKVDNALQSGNSQESVTEQDSKDSTYSLSSTLTLSKADYEKHKVYACEVTHQGLSSPVTKSFNRGEC | 1.05 nM | 0.79 | 0.0014 s⁻¹
6 | VH3/VK5 humanized 11C12 antibody (antibody, human IgG1, kappa, Human IgG1/kappa; tested as HEK293 EBNA supernatant; also called H3K5) heavy: not shown light: DIVMTQSPDSLAVSLGERATINCKSSQSVDYDGDSYMNWYQQKPGKAPKLLIYGASNLESGIPDRFSGSGSGTDFTLTISRLEPEDAAVYYCQQSNEDPFTFGQGTKLEIKRTVAAPSVFIFPPSDEQLKSGTASVVCLLNNFYPREAKVQWKVDNALQSGNSQESVTEQDSKDSTYSLSSTLTLSKADYEKHKVYACEVTHQGLSSPVTKSFNRGEC | 1.1 nM | 0.83 | 0.00143 s⁻¹
7 | VH1/VK5 humanized 11C12 antibody (antibody, human IgG1, kappa, Human IgG1/kappa; tested as HEK293 EBNA supernatant; also called H1K5) heavy: not shown light: DIVMTQSPDSLAVSLGERATINCKSSQSVDYDGDSYMNWYQQKPGKAPKLLIYGASNLESGIPDRFSGSGSGTDFTLTISRLEPEDAAVYYCQQSNEDPFTFGQGTKLEIKRTVAAPSVFIFPPSDEQLKSGTASVVCLLNNFYPREAKVQWKVDNALQSGNSQESVTEQDSKDSTYSLSSTLTLSKADYEKHKVYACEVTHQGLSSPVTKSFNRGEC | 1.12 nM | 0.84 | 0.00139 s⁻¹
8 | VH1/VK1 humanized 11C12 antibody (antibody, human IgG1, kappa, Human IgG1/kappa; tested as HEK293 EBNA supernatant; also called H1K1) heavy: not shown light: DIVMTQSPGSLAVSLGERATINCKASQSVDYDGDSYMNWYQQKPGKAPKLLIYGASNLESGIPDRFSGSGSGTDFTLTISRLEEEDAASYYCQQSNEDPFTFGQGTKLEIKRTVAAPSVFIFPPSDEQLKSGTASVVCLLNNFYPREAKVQWKVDNALQSGNSQESVTEQDSKDSTYSLSSTLTLSKADYEKHKVYACEVTHQGLSSPVTKSFNRGEC | 1.02 nM | 0.77 | 0.00128 s⁻¹
9 | VH0/VK1 (antibody, human IgG1, kappa, V domains shown, tested as HEK supernatant; also called control antibody (chimeric heavy chain with humanized VK1 light chain)) VH: EVTLKESGGGLVQPGGSRKLSCAASGFTFSTFGIHWVRQAPEKGLEWVAYISGASTTIYYADTVKGRFTISRDNPKNTLFLQMTSLRSEDTAMYYCARYGTSFPYGLDYWGQGTSVTVSS VL: DIVMTQSPGSLAVSLGERATINCKASQSVDYDGDSYMNWYQQKPGKAPKLLIYGASNLESGIPDRFSGSGSGTDFTLTISRLEEEDAASYYCQQSNEDPFTFGQGTKLEIKR | 1.12 nM | 0.84 | 0.00137 s⁻¹
10 | VH4/VK5 humanized 11C12 antibody (antibody, human IgG1, kappa, V domains shown, Human IgG1/kappa; tested as HEK293 EBNA supernatant; also called H4K5) VH: EVQLVESGGGLVQPGGSLKLSCAASGFTFSTFGIHWVRQAPGKGLEWVAYISGASTTIYYADTVKGRFTISRDNSKNTLYLQMNSLRAEDTAVYYCARYGTSFPYGLDYWGQGTLVTVSS VL: DIVMTQSPDSLAVSLGERATINCKSSQSVDYDGDSYMNWYQQKPGKAPKLLIYGASNLESGIPDRFSGSGSGTDFTLTISRLEPEDAAVYYCQQSNEDPFTFGQGTKLEIKR | 0.996 nM | 0.75 | 0.00137 s⁻¹

The remaining binders from weak to strong by Kd, led by results:

Row | Kd | Relative KD | koff | Binder
11 | 0.975 nM | 0.73 | 0.00129 s⁻¹ | VH4/VK1 humanized 11C12 antibody (antibody, human IgG1, kappa, V domains shown, Human IgG1/kappa; tested as HEK293 EBNA supernatant; also called H4K1) VH: EVQLVESGGGLVQPGGSLKLSCAASGFTFSTFGIHWVRQAPGKGLEWVAYISGASTTIYYADTVKGRFTISRDNSKNTLYLQMNSLRAEDTAVYYCARYGTSFPYGLDYWGQGTLVTVSS VL: DIVMTQSPGSLAVSLGERATINCKASQSVDYDGDSYMNWYQQKPGKAPKLLIYGASNLESGIPDRFSGSGSGTDFTLTISRLEEEDAASYYCQQSNEDPFTFGQGTKLEIKR
12 | 0.971 nM | 0.73 | 0.00126 s⁻¹ | VH2/VK2 humanized 11C12 antibody (antibody, human IgG1, kappa, Human IgG1/kappa; tested as HEK293 EBNA supernatant; also called H2K2) heavy: not shown light: DIVMTQSPDSLAVSLGERATINCKASQSVDYDGDSYMNWYQQKPGKAPKLLIYGASNLESGIPDRFSGSGSGTDFTLTISRLEPEDAASYYCQQSNEDPFTFGQGTKLEIKRTVAAPSVFIFPPSDEQLKSGTASVVCLLNNFYPREAKVQWKVDNALQSGNSQESVTEQDSKDSTYSLSSTLTLSKADYEKHKVYACEVTHQGLSSPVTKSFNRGEC
13 | 0.968 nM | 0.73 | 0.00126 s⁻¹ | VH1/VK2 humanized 11C12 antibody (antibody, human IgG1, kappa, Human IgG1/kappa; tested as HEK293 EBNA supernatant; also called H1K2) heavy: not shown light: DIVMTQSPDSLAVSLGERATINCKASQSVDYDGDSYMNWYQQKPGKAPKLLIYGASNLESGIPDRFSGSGSGTDFTLTISRLEPEDAASYYCQQSNEDPFTFGQGTKLEIKRTVAAPSVFIFPPSDEQLKSGTASVVCLLNNFYPREAKVQWKVDNALQSGNSQESVTEQDSKDSTYSLSSTLTLSKADYEKHKVYACEVTHQGLSSPVTKSFNRGEC
14 | 0.948 nM | 0.71 | 0.00125 s⁻¹ | VH1/VK3 humanized 11C12 antibody (antibody, human IgG1, kappa, Human IgG1/kappa; tested as HEK293 EBNA supernatant; also called H1K3) heavy: not shown light: DIVMTQSPDSLAVSLGERATINCKASQSVDYDGDSYMNWYQQKPGKAPKLLIYGASNLESGIPDRFSGSGSGTDFTLTISRLEPEDAAVYYCQQSNEDPFTFGQGTKLEIKRTVAAPSVFIFPPSDEQLKSGTASVVCLLNNFYPREAKVQWKVDNALQSGNSQESVTEQDSKDSTYSLSSTLTLSKADYEKHKVYACEVTHQGLSSPVTKSFNRGEC
15 | 0.917 nM | 0.69 | 0.00126 s⁻¹ | VH2/VK4 humanized 11C12 antibody (antibody, human IgG1, kappa, Human IgG1/kappa; tested as HEK293 EBNA supernatant; also called H2K4) heavy: not shown light: DIVMTQSPDSLAVSLGERATINCKSSQSVDYDGDSYMNWYQQKPGKAPKLLIYGASNLESGIPDRFSGSGSGTDFTLTISRLEPEDAASYYCQQSNEDPFTFGQGTKLEIKRTVAAPSVFIFPPSDEQLKSGTASVVCLLNNFYPREAKVQWKVDNALQSGNSQESVTEQDSKDSTYSLSSTLTLSKADYEKHKVYACEVTHQGLSSPVTKSFNRGEC
16 | 0.89 nM | 0.67 | 0.0012 s⁻¹ | VH2/VK1 humanized 11C12 antibody (antibody, human IgG1, kappa, Human IgG1/kappa; tested as HEK293 EBNA supernatant; also called H2K1) heavy: not shown light: DIVMTQSPGSLAVSLGERATINCKASQSVDYDGDSYMNWYQQKPGKAPKLLIYGASNLESGIPDRFSGSGSGTDFTLTISRLEEEDAASYYCQQSNEDPFTFGQGTKLEIKRTVAAPSVFIFPPSDEQLKSGTASVVCLLNNFYPREAKVQWKVDNALQSGNSQESVTEQDSKDSTYSLSSTLTLSKADYEKHKVYACEVTHQGLSSPVTKSFNRGEC
17 | 0.884 nM | 0.66 | 0.00123 s⁻¹ | VH3/VK1 humanized 11C12 antibody (antibody, human IgG1, kappa, Human IgG1/kappa; tested as HEK293 EBNA supernatant; also called H3K1) heavy: not shown light: DIVMTQSPGSLAVSLGERATINCKASQSVDYDGDSYMNWYQQKPGKAPKLLIYGASNLESGIPDRFSGSGSGTDFTLTISRLEEEDAASYYCQQSNEDPFTFGQGTKLEIKRTVAAPSVFIFPPSDEQLKSGTASVVCLLNNFYPREAKVQWKVDNALQSGNSQESVTEQDSKDSTYSLSSTLTLSKADYEKHKVYACEVTHQGLSSPVTKSFNRGEC
18 | 0.854 nM | 0.64 | 0.00114 s⁻¹ | VH4/VK2 humanized 11C12 antibody (antibody, human IgG1, kappa, V domains shown, Human IgG1/kappa; tested as HEK293 EBNA supernatant; also called H4K2) VH: EVQLVESGGGLVQPGGSLKLSCAASGFTFSTFGIHWVRQAPGKGLEWVAYISGASTTIYYADTVKGRFTISRDNSKNTLYLQMNSLRAEDTAVYYCARYGTSFPYGLDYWGQGTLVTVSS VL: DIVMTQSPDSLAVSLGERATINCKASQSVDYDGDSYMNWYQQKPGKAPKLLIYGASNLESGIPDRFSGSGSGTDFTLTISRLEPEDAASYYCQQSNEDPFTFGQGTKLEIKR
